According to IntAct's records for PubMed 20696164:

B1: E3 ubiquitin-protein ligase SH3RF1 (Homo sapiens), Q7Z6J0 (parent)
chain: MDESALLDLLECPVCLERLDASAKVLPCQHTFCKRCLLGIVGSRNELRCPECRTLVGSGVEELPSNILLVRLLDGIKQRPWKPGPGGGSGTNCTNALRSQSSTVANCSSKDLQSSQGGQQPRVQSWSPPVRGIPQLPCAKALYNYEGKEPGDLKFSKGDIIILRRQVDENWYHGEVNGIHGFFPTNFVQIIKPLPQPPPQCKALYDFEVKDKEADKDCLPFAKDDVLTVIRRVDENWAEGMLADKIGIFPISYVEFNSAAKQLIEWDKPPVPGVDAGECSSAAAQSSTAPKHSDTKKNTKKRHSFTSLTMANKSSQASQNRHSMEISPPVLISSSNPTAAARISELSGLSCSAPSQVHISTTGLIVTPPPSSPVTTGPSFTFPSDVPYQAALGTLNPPLPPPPLLAATVLASTPPGATAAAAAAGMGPRPMAGSTDQIAHLRPQTRPSVYVAIYPYTPRKEDELELRKGEMFLVFERCQDGWFKGTSMHTSKIGVFPGNYVAPVTRAVTNASQAKVPMSTAGQTSRGVTMVSPSTAGGPAQKLQGNGVAGSPSVVPAAVVSAAHIQTSPQAKVLLHMTGQMTVNQARNAVRTVAAHNQERPTAAVTPIQVQNAAGLSPASVGLSHHSLASPQPAPLMPGSATHTAAISISRASAPLACAAAAPLTSPSITSASLEAEPSGRIVTVLPGLPTSPDSASSACGNSSATKPDKDSKKEKKGLLKLLSGASTKRKPRVSPPASPTLEVELGSAELPLQGAVGPELPPGGGHGRAGSCPVDGDGPVTTAVAGAALAQDAFHRKASSLDSAVPIAPPPRQACSSLGPVLNESRPVVCERHRVVVSYPPQSEAELELKEGDIVFVHKKREDGWFKGTLQRNGKTGLFPGSFVENI
B2: E3 ubiquitin-protein ligase SH3RF3 (Homo sapiens), Q8TEJ3 (parent)
chain: MLLGASWLCASKAAAAAAQSEGDEDRPGERRRRRAAATAAGAGEDMDESSLLDLLECSVCLERLDTTAKVLPCQHTFCRRCLESIVCSRHELRCPECRILVGCGVDELPANILLVRLLDGIRQRPRAGTSPGGSPPARPIPGQSAAPTLAGGGGGAAGSTPGSPVFLSAAAGSTAGSLRELATSRTAPAAKNPCLLPYGKALYSYEGKEPGDLKFNKGDIIVLRRKVDEQWYHGELHGTQGFLPASYIQCIQPLPHAPPQGKALYDFEMKDKDQDKDCLTFTKDEILTVLRRVDENWAEGMLGDKIGIFPLLYVELNDSAKQLIEMDKPCPAAASSCNASLPSDSGAVASVAPSPTLSSSGAVSAFQRRVDGKKNTKKRHSFTALSVTHRSSQAASHRHSMEISAPVLISSSDPRAAARIGDLAHLSCAAPTQDVSSSAGSTPTAVPRAASVSGEQGTPPKVQLPLNVYLALYAYKPQKSDELELHKGEMYRVLEKCQDGWFKGASLRTGVSGVFPGNYVTPVSRVPAGGAGPPRNNVVGGSPLAKGITTTMHPGSGSLSSLATATRPALPITTPQAHAQHPTASPPTGSCLRHSAQPTASQARSTISTAAHSAAQAQDRPTATVSPLRTQNSPSRLPATSLRPHSVVSPQHSHQPPVQMCPRPAIPLTSAASAITPPNVSAANLNGEAGGGPIGVLSTSSPTNTGCKLDEKKSEKKEKKSGLLKLLAGASTKKKSRSPPSVSPTHDPQVAVDALLQGAVGPEVSSLSIHGRAGSCPIESEMQGAMGMEPLHRKAGSLDLNFTSPSRQAPLSMAAIRPEPKLLPRERYRVVVSYPPQSEAEIELKEGDIVFVHKKREDGWYKGTLQRNGRTGLFPGSFVESF

Variants of: B1
Conditions: with ubc_human UBC

Variant	effect of a mutation on the interaction
C28A	decreasing interaction
H30A	decreasing interaction

Variants of: B2
Conditions: with ubc_human UBC

Variant	effect of a mutation on the interaction
H75A	decreasing interaction
C73A	decreasing interaction

Variants of: B2
Conditions: with rac1_human RAC1, P63000

Variant	effect of a mutation on the interaction
P406A	disrupting interaction
I403N	disrupting interaction
S404P	disrupting interaction

Variants of: B2
Conditions: with rac1_human RAC1, P63000
Remark: another data set of the same source

Variant	effect of a mutation on the interaction
L385A	decreasing interaction

Variants of: B2
Conditions: with rac1_human RAC1, P63000
Remark: another data set of the same source

Variant	effect of a mutation on the interaction
P414A	decreasing interaction
